Reference: the supplement of paper PMC10724198

Columns and labels:
[1] = tested on: Saccharomyces cerevisiae; experiment: protein stability index of tFT-peptide fusion in wild type (PSI (0-1 scale)); higher = more stable (slower turnover); settings: genetic background: wild type
[2] = tested on: Saccharomyces cerevisiae; experiment: protein stability index of tFT-peptide fusion in deletion strain of DAS1 (PSI (0-1 scale)); higher = more stable (slower turnover)
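For protein stability index of tFT-peptide fusion in deletion strain of DAS1 in this document: PSI is a weighted mean of each variant's read distribution over the sorted stability bins, computed only for variants having over 10 reads in total.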
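For protein stability index of tFT-peptide fusion in wild type in this document: PSI derived as read-weighted mean over the 8 sorting bins, only variants exceeding 10 total reads kept, mCherry placed adjacent to the peptide and sfGFP distal.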

| Sequence | protein stability index [1] | protein stability index [2] |
| --- | --- | --- |
| RHIQPLPVQFLN | 0.167 | 0.588 |
| RKIQPLPVQFLN | 0.0533 | 0.616 |
| RLIIPLPVQFLN | 0.018 | 0.551 |
| RLIQALPVQFLN | 0.0525 | 0.683 |
| RLIQPAPVQFLN | 0.0579 | 0.612 |
| RLIQPLDVQFLN | 0.225 | 0.617 |
| RLIQPLEVQFLN | 0.163 | 0.665 |
| RLIQPLPQQFLN | 0.0631 | 0.642 |
| RLIQPLPRQFLN | 0.19 | 0.596 |
| RLIQPLPSQFLN | 0.106 | 0.613 |
| RLIQPLPVQCLN | 0.173 | 0.478 |
| RLIQPLPVQFAN | 0.353 | 0.62 |
| RLIQPLPVQFGN | 0.63 | 0.611 |
| RLIQPLPVQFLNE | 0.659 | 0.676 |
| RLIQPLPVQFLNQ | 0.65 | 0.673 |
| RLIQPLPVQFLW | 0.621 | 0.565 |
| RLIQPLPVQLLN | 0.0606 | 0.577 |
| RLIQPLVVQFLN | 0.045 | 0.587 |
| RLIVPLPVQFLN | 0.0525 | 0.607 |
| RLPQPLPVQFLN | 0.118 | 0.631 |
| RSMRWTFRYWVN | 0.0703 | 0.659 |
| SVVYLSCVACIN | 0.0146 | 0.0314 |
| TKHKKGQKQKIN | 0.118 | 0.639 |
| TLIQPLPVQFLN | 0.102 | 0.576 |
| VEGAVGGWRLVG | 0.159 | 0.685 |

| Sequence | protein stability index [1] | protein stability index [2] |
| --- | --- | --- |
| VFGAVGGWRLVG | 0.134 | 0.698 |
| VHGAVGGWRLVG | 0.136 | 0.692 |
| VMGAVGGWRLVG | 0.118 | 0.681 |
| VRGAAGGWRLVG | 0.164 | 0.689 |
| VRGADGGWRLVG | 0.438 | 0.685 |
| VRGAPGGWRLVG | 0.165 | 0.684 |
| VRGAVGGCRLVG | 0.633 | 0.692 |
| VRGAVGGERLVG | 0.65 | 0.698 |
| VRGAVGGGRLVG | 0.564 | 0.682 |
| VRGAVGGWFLVG | 0.626 | 0.673 |
| VRGAVGGWNLVG | 0.198 | 0.679 |
| VRGAVGGWRGVG | 0.602 | 0.673 |
| VRGAVGGWRLLG | 0.164 | 0.658 |
| VRGAVGGWRLNG | 0.234 | 0.679 |
| VRGAVGGWRLQG | 0.153 | 0.649 |
| VRGAVGGWRLRG | 0.636 | 0.679 |
| VRGAVGGWRLVE | 0.726 | 0.663 |
| VRGAVGGWRLVGH | 0.668 | 0.671 |
| VRGAVGGWRLVGL | 0.665 | 0.675 |
| VRGAVGGWRLVI | 0.215 | 0.685 |
| VRGAVGGWRLVM | 0.321 | 0.661 |
| VRGAVGGWRLVP | 0.436 | 0.686 |
| VRGAVGGWRLVT | 0.184 | 0.675 |
| VRGAVGGWRLVY | 0.654 | 0.636 |
